In US20100129807A1 (published 2010):
Where no end group is shown, it is not given here.

Molecular target: T1, bacterial repressor protein LexA (UniProt P0A7C2 1-202)
T1 construct: One entry is used for LexA in all assays; also called LexA target (pEG202); LexA bait
T1 sequence: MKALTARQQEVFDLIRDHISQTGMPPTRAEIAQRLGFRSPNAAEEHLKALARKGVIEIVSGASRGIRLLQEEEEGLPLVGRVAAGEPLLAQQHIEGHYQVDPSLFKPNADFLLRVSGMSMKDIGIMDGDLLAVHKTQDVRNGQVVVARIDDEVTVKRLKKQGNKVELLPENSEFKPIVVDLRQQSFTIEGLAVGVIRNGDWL
Assay: SPR (BiacoreX), L2 peptide immobilised on a CM5 chip, LexA injected

B1: synthetic linear L2 peptide with a TAT importer sequence at the N-terminal (NH2-GRKKRRQRRRPPQ-SRSWDLPGEY) (peptide)
peptide: H-GRKKRRQRRRPPQSRSWDLPGEY
notes: Immobilised on a CM5 sensor chip for SPR
Kd: 1700 nM
